Results published in patent US20140275490A1 (Astellas, published 2014).

Assays:
[1] = target: T1, human IL-23R-mouse Fc fusion protein (human; mouse, UniProt Q5VWK5 24-353); experiment: antigen ELISA, human IL-23R-Fc immobilized, HRP anti-mouse Ig, chemiluminescence
T1 construct: Expressed in FreeStyle 293 cells, purified; immobilized on the ELISA plate at 500 ng/mL; also called human IL-23R-Fc fusion protein; not shown: Fc region of mouse immunoglobulin (IgG2a) as encoded by the vector pFUSE-mIgG2A-Fc2 (InvivoGen); limits and any linker r
T1 sequence: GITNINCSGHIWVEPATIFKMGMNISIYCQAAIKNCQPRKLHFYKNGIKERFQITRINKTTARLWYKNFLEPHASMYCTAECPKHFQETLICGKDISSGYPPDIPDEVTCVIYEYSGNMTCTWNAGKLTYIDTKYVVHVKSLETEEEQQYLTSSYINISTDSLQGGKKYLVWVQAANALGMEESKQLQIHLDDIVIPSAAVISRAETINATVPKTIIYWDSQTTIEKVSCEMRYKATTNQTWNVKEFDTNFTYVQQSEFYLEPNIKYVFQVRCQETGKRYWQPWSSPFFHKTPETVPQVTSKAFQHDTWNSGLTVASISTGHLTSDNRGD
Description: (§1) The present inventors used an antigen ELISA to measure the antigen-specific binding activity of the antibody. The human or monkey IL-23R-Fc fusion protein was immobilized onto a Maxisorp 384-well plate (Nunc, Inc.) at a concentration of 500 ng/mL. A blocking agent (Blocking One; Nacalai Tesque, Inc.) was added thereto and allowed to stand at room temperature for 1 hour, followed by washing twice with a wash buffer [TPBS: a phosphate buffered saline (PBS) containing 0.05% Tween-20], and the purified antibody samples were suitably serially diluted and added thereto. Incubation was performed at room temperature for 1 hour, followed by washing four times with TPBS, and HRP-rabbit anti-mouse Ig antibody (DAKO) which was 2000-fold diluted with a dilution buffer was added. Incubation was performed at room temperature for 1 hour, followed by washing four times with a wash buffer. A BM-chemiluminescence ELISA substrate (POD) (Roche Diagnostics), which is a reagent for detecting chemical luminescence, was added, and the amount of chemiluminescence was measured with an EnVision counter (Perkin Elmer). Each antibody was tested in duplicate and the EC50 was analyzed by curve fitting. In this test, a fusion antibody obtained by replacing the Fc region of the known humanized anti-human IL-23R antibody hum20D7 (patent document 1) with the mouse Fc region (hereinafter referred to as hum20D7-mFc) was used as a comparative antibody. Also, the reason why the hum20D7 was fused with the mouse Fc region to prepare a fusion protein was to use anti-mouse Ig antibody as secondary antibody, and the mouse Fc region could be recognized by the anti-mouse Ig antibody, thereby rendering it possible to measure activity.

[2] = target: T2, monkey IL-23R-mouse Fc fusion protein (monkey; mouse); experiment: antigen ELISA, monkey IL-23R-Fc immobilized, HRP anti-mouse Ig, chemiluminescence
T2 construct: extracellular domain; also called monkey IL-23R-Fc fusion protein
Description: as §1

B1: 34-58 (chimeric) (antibody, V domains shown)
VH: QVHLVQSGTEVRKPGASVKVSCKVSGYTLNELAIHWVRQAPGKGLEWMGGFDPEHGEIIYAQRFQGRITLPEDTSTDTAYMDLVNLRSEDTAVYFCTTEAAPFDYWGQGSLVIVSS
VL: DIQMTQSPSTLSASVGDRVTITCRASQSLSNWLAWYQQKPGKAPKLLIYKASSLESGVPSRFSGSGSGTDFTLTISGLQPDDFATYYCQQYDIYPRTFGQGTKVEIKR
EC50 [1]: 0.017 µg/mL | EC50 [2]: 0.013 µg/mL

B2: 32-36 (chimeric) (antibody, V domains shown)
VH: QVQMVQSGAEVKRPGASVKVSCKVSGYTLNELGIHWVRQAPGKGLEWMGGFDPEHGKIIYAQRFQGRLTMPEDTSTDTAYMELSSLTSEDTAVYYCATVAAPLDYWGQGTLVTVSS
VL: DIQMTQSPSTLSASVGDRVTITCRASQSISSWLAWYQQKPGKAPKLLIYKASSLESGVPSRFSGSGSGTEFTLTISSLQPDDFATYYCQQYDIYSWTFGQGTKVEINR
EC50 [1]: 0.023 µg/mL | EC50 [2]: 0.028 µg/mL
